Experimental data reported in the supplement of paper PMC9732359.
± gives the uncertainty stated by the source.

Assay: protein stability index of a GFP-peptide fusion (yeast GPS) (PSI 1-4); higher = more stable; sorted into four equal gates, so the index is relative within each strain
Method in brief: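 Sequencing reads from sorted gates were used to score each peptide. The library consisted of tiled 17-residue yeast protein peptides fused downstream of GFP on a Cherry-expressing plasmid, pooled and carried in yeast. Mid-log cultures in leucine-free medium were split into four equal gates by GFP/Cherry ratio, and each gate's plasmids were PCR-amplified and Illumina-sequenced. The protein stability index adds up, over all gates, the read frequency multiplied by the gate number.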

Sequence	protein stability index (doa10∆)	protein stability index (pdr5∆)	protein stability index (san1∆)	protein stability index (ubr1∆)
LVQLFLWDSKELEQLVE [RPN3]	2.64 ± 0.13	2.78 ± 0.084	2.08 ± 0.28	2.85 ± 0.083
LVSDSEIIDLNLHSFTK [POP6]	2.62 ± 0.072	2.81 ± 0.069	2.31 ± 0.07	2.71 ± 0.048
LVSVVEAFIASGITDPY [FAS2]	1.42 ± 0.041	1.39 ± 0.042	1.67 ± 0.072	1.85 ± 0.035
LVTCEGSEEKAFVPKKR [SRP54]	2.19 ± 0.12	1.85 ± 0.11	1.62 ± 0.13	1.61 ± 0.066
LVVIRFGRKNDRQCMIM [DIB1]	2.4 ± 0.061	2.55 ± 0.055	2.33 ± 0.073	2.79 ± 0.038
LWELALAFIPNILALNL [YML031W/NDC1]	2.01 ± 0.069	1.86 ± 0.048	1.85 ± 0.083	1.34 ± 0.061
LYKLNDKIAVAVAGLTA [PRE9]	2.29 ± 0.056	2.14 ± 0.052	2.18 ± 0.095	2.31 ± 0.043
LYQIDYLGTKVELPYGA [PRE1]	1.72 ± 0.089	1.81 ± 0.079	1.62 ± 0.099	2.23 ± 0.073
LYRLSTPLRDEVTDKNY [PRP8]	3.13 ± 0.096	2.88 ± 0.066	3.02 ± 0.067	3.11 ± 0.059
LYSVKFAPAHLGLKLAC [YGL100W/SEH1]	2.73 ± 0.074	1.98 ± 0.049	2.72 ± 0.072	2.79 ± 0.046
MAAEKILTPESQLKKSK [RPL7A]	3.07 ± 0.11	3.28 ± 0.28	3.25 ± 0.2	–
MAGKVLILTSHNMKAYY [BRR2]	2.1 ± 0.06	2.46 ± 0.058	1.6 ± 0.094	2.4 ± 0.068
MAKQLIRLANESSELNK [CSN12]	3 ± 0.08	2.62 ± 0.064	2.96 ± 0.079	2.63 ± 0.073
MAKRTKKVGITGKYGVR [RPL43A]	3.36 ± 0.11	3.34 ± 0.094	3.09 ± 0.1	3.55 ± 0.082
MAMNITPRLYTDRSRDF [RPB2]	2.93 ± 0.089	3 ± 0.087	2.96 ± 0.096	3.2 ± 0.087
MAQRVTFRRRNPYNTRS [RPL34A]	1.55 ± 0.043	1.82 ± 0.047	1.54 ± 0.072	1.77 ± 0.043
MARGPKKHLKRLAAPHH [RPS4A]	2.9 ± 0.13	3 ± 0.087	3.1 ± 0.069	3.05 ± 0.054
MATNKIETLDPALIRPG [RPT2]	3.23 ± 0.1	3.31 ± 0.12	2.96 ± 0.081	3 ± 0.075
MAVGKNKRLSRGKKGLK [RPS1B]	1.49 ± 0.13	1.62 ± 0.083	1.64 ± 0.14	1.46 ± 0.12
MAVKTGIAIGLNKGKKV [RPL36B]	–	1.49 ± 0.2	–	–
MCHIVRKFHELNDHIDD [GRR1]	2.13 ± 0.053	2.31 ± 0.071	2.18 ± 0.079	1.72 ± 0.04
MDAYSTRPLTLSHGSLE [FAS1]	3.18 ± 0.11	3.15 ± 0.1	3.05 ± 0.093	3.3 ± 0.087
MDEMDNVIRSLEQEYRL [RMP1]	1.81 ± 0.064	1.21 ± 0.025	1.71 ± 0.15	2.05 ± 0.072
MDFFNLNNNNNNNNTTT [SWI1]	2.97 ± 0.072	3.33 ± 0.081	2.53 ± 0.13	2.35 ± 0.067
MDFLNSMENTPKVPVSA [GAL11]	2.42 ± 0.094	2.45 ± 0.11	2.1 ± 0.13	2.37 ± 0.065
MDQDNNNHNDSNRLHPP [GRR1]	2.73 ± 0.062	2.79 ± 0.062	2.69 ± 0.064	2.9 ± 0.04

Sequence	protein stability index (doa10∆)	protein stability index (pdr5∆)	protein stability index (san1∆)	protein stability index (ubr1∆)
MDVDIGCYFEEKRYDDK [CSN12]	3.42 ± 0.087	3.19 ± 0.15	3.01 ± 0.11	3.33 ± 0.15
MEELGIVTPVEKAVEEK [RPT3]	–	1.11 ± 0.094	–	1.47 ± 0.17
MEGDDLFDEFGNLIGVD [SNU114]	3.37 ± 0.2	–	–	–
MEQCKQRYQDLSQQQKD [YIL149C/MLP2]	3.33 ± 0.086	3.3 ± 0.074	2.95 ± 0.067	2.95 ± 0.048
MEWPKDMLKYKEDEPVV [ITC1]	2.75 ± 0.27	3.12 ± 0.14	3.36 ± 0.09	3.67 ± 0.17
MFANMKVLGVKDMSPIL [LRP1]	1.84 ± 0.069	1.52 ± 0.046	1.41 ± 0.072	1.46 ± 0.047
MFDAFVSFYFEDGTIES [SIN4]	2.33 ± 0.078	2.76 ± 0.062	2.52 ± 0.059	3.07 ± 0.062
MFFIKDLSLNITLHPSF [RPB7]	–	1.97 ± 0.16	–	2.24 ± 0.26
MGEAQTGANFDDVERGV [REC8]	3.37 ± 0.093	2.98 ± 0.11	3.52 ± 0.17	3.24 ± 0.081
MGKSHGYRSRTRYMFQR [RPL21A]	3.15 ± 0.094	3.25 ± 0.093	3.3 ± 0.056	3.32 ± 0.055
MGLGKTLQTISFLGYLR [ISW2]	2.45 ± 0.044	2.06 ± 0.054	1.67 ± 0.087	2.13 ± 0.056
MGNTKVHCRISCQIAQP [RRP45]	1.64 ± 0.059	2.04 ± 0.079	1.56 ± 0.1	1.91 ± 0.056
MHLMALHIHGSSNPLGI [COB]	2.31 ± 0.07	2.1 ± 0.059	2.1 ± 0.052	2.32 ± 0.046
MKLDDSSKTRNVLNRIQ [ITC1]	1.78 ± 0.082	1.3 ± 0.051	2.71 ± 0.12	1.38 ± 0.056
MKPKAEKESDDGLLEYL [SMC4]	3.58 ± 0.17	3.37 ± 0.16	3.31 ± 0.18	–
MKRADKFKDMGIRAPKG [RPT5]	2.89 ± 0.1	3.38 ± 0.16	2.98 ± 0.13	3.3 ± 0.12
MKSLLTELSNKETTIEK [YIL149C/MLP2]	3.23 ± 0.13	3 ± 0.12	3.41 ± 0.07	3.25 ± 0.062
MKTQRFVSNMGFDIQKS [SIR4]	2.63 ± 0.069	2.24 ± 0.058	2.5 ± 0.083	2.01 ± 0.04
MKVLEERNAFLSDYEVL [RPC17]	–	2.77 ± 0.27	–	–
MKYTQYPNSSKLKRNSD [LIN1]	3.17 ± 0.089	3.03 ± 0.079	2.99 ± 0.05	3.14 ± 0.094
MKYVRETSGVTTALLKD [MED8]	2.72 ± 0.099	3.31 ± 0.12	3 ± 0.081	2.21 ± 0.24
MLGHYLGEFSITYTPVR [RPS15]	2.27 ± 0.19	2.83 ± 0.073	2.04 ± 0.16	2.86 ± 0.18
MLPPKSVKFTHIAHTLP [SSN2]	1.57 ± 0.073	2 ± 0.05	2.05 ± 0.098	1.82 ± 0.034
MNAILTDVKLTLPQPRL [SMD1]	2.98 ± 0.079	2.96 ± 0.097	2.65 ± 0.079	3.11 ± 0.076
MNLQNNVLNQIHQILLP [CSE2]	2.73 ± 0.062	2.73 ± 0.071	2.24 ± 0.12	3.21 ± 0.12
MNNGSGRYLLTPPDDLH [SRB8]	2.41 ± 0.06	2 ± 0.044	2.29 ± 0.13	2.63 ± 0.054

Sequence	protein stability index (doa10∆)	protein stability index (pdr5∆)	protein stability index (san1∆)	protein stability index (ubr1∆)
MNVTPLDELQWKSPEWI [MED6]	3.1 ± 0.13	3.14 ± 0.1	3.19 ± 0.061	3.37 ± 0.21
MPGMPNMPGMPKVTPQM [SRP54]	3.06 ± 0.17	3.2 ± 0.21	2.65 ± 0.18	3.34 ± 0.1
MPGSQINSPMPQQAQMQ [SNF2]	2.9 ± 0.081	2.87 ± 0.096	3.05 ± 0.07	2.95 ± 0.097
MQIFVKTLTGKTITLEV [RPS31]	2.48 ± 0.17	1.76 ± 0.097	2.61 ± 0.13	3.13 ± 0.13
MRLIKRVRAESLHSNSF [YJL039C/NUP192]	2.12 ± 0.11	1.64 ± 0.14	–	2.44 ± 0.12
MRRFILGTTEGDIKVLD [RPN14]	–	–	–	1.25 ± 0.18
MRRNSKILNIIKCSQSS [POP5]	1.92 ± 0.049	2.27 ± 0.082	2.1 ± 0.073	2.21 ± 0.046
MRSKLEKLTLVTLSEIY [CSN9]	1.56 ± 0.05	1.79 ± 0.035	1.79 ± 0.07	1.79 ± 0.051
MSACVGQQSVEGKRIAF [RPO21]	2.27 ± 0.26	1.97 ± 0.16	1.62 ± 0.24	2.63 ± 0.24
MSDFVPIDAGLNEAPFP [MCD1]	3 ± 0.07	2.56 ± 0.05	2.92 ± 0.051	2.97 ± 0.047
MSDSPLSKRQKRKSAQE [SMC4]	3.46 ± 0.17	3.16 ± 0.11	3.04 ± 0.12	3.46 ± 0.27
MSEEQDPLLAGLGETSG [RPT4]	2.91 ± 0.24	3.55 ± 0.17	3.57 ± 0.17	3.25 ± 0.15
MSLEPTQTVSGTPPMLH [DSN1]	2.78 ± 0.14	3 ± 0.12	2.92 ± 0.22	3 ± 0.1
MSLTTAAPLLALLRENQ [RPN2]	2.6 ± 0.19	3.31 ± 0.25	2.8 ± 0.12	3.05 ± 0.08
MSTKAQNPMRDLKIEKL [RPL11B]	3.36 ± 0.16	3.25 ± 0.11	3.46 ± 0.11	3.6 ± 0.23
MTIDLEPIEESSQNNSE [IRR1]	2.94 ± 0.068	3.14 ± 0.056	2.67 ± 0.11	3.09 ± 0.059
MTQRAIQSAESIKSQKE [SWI3]	2.27 ± 0.12	1.74 ± 0.082	2.5 ± 0.14	1.7 ± 0.13
MTRSSVLADALNAINNA [RPS22A]	2.86 ± 0.052	3.27 ± 0.056	2.72 ± 0.054	2.99 ± 0.045
MTSENPDVLLSRVINVV [RRP6]	1.39 ± 0.12	1.61 ± 0.083	1.49 ± 0.12	2.27 ± 0.14
MVGLVDPDKLKPNDLVG [RPT5]	2.87 ± 0.097	2.94 ± 0.14	2.94 ± 0.062	2.75 ± 0.069
MVKGLLKSFTESTAGSA [ECM29]	3.34 ± 0.26	2.97 ± 0.18	2.81 ± 0.11	3.34 ± 0.096
MVQQLSLFGSIGDDGYD [SRB5]	3.17 ± 0.1	3.26 ± 0.13	3.16 ± 0.057	3.47 ± 0.085
MVSHKTARGKAALERLK [RPL16B]	2.92 ± 0.21	2.74 ± 0.15	2.47 ± 0.21	2.21 ± 0.16
MYILGMCVSKGNASLKY [YCG1]	1.79 ± 0.083	2.42 ± 0.12	1.58 ± 0.11	2.17 ± 0.091
NAELLDYLFHLLISLNI [YLR018C/POM34]	1.79 ± 0.044	1.37 ± 0.031	1.21 ± 0.068	1.28 ± 0.027
NAKDKERLQLLEDVVGA [SMC3]	3.32 ± 0.19	3.38 ± 0.13	3.01 ± 0.071	3.21 ± 0.11
